US20210009704A1 (TUSK THERAPEUTICS, published 2021)

What was measured:
[1] = biological target: T1, inhouse produced monomeric CD25 antigen (P1AA5872) (human, UniProt P01589 22-240, limits assumed); assay: SPR Biacore T200, antibody captured by anti-human Fab, monomeric CD25 in solution, 1:1 Langmuir fit; column head 'Binding strength'
T1 construct: also called Inhouse (0% dimer)
T1 sequence: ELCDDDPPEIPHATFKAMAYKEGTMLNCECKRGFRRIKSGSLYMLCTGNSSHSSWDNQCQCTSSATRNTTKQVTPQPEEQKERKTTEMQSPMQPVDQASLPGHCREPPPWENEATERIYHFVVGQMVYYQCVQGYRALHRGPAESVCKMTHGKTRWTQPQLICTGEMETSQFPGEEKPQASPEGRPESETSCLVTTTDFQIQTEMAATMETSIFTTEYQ
Experimental: (§1) Binding of CD25 antibodies to human CD25 antigen was investigated by surface plasmon resonance using a BIACORE T200 instrument (GE Healthcare).
(§2) The flow cell was set to 25° C. and the sample compartment to 12° C. The CD25 antibody was captured by injecting a 3 μg/ml solution for 60 sec at a flow rate of 10 μl/min. Association of CD25 antigen was measured by injection of human CD25 solutions for 180 sec at a flow rate of 30 μl/min starting with a concentration of 1000 nM down to 1 nM in 1:10 dilution steps. The dissociation phase was triggered by switching from sample solution injection to running buffer and monitored for up to 600 seconds. The surface was regenerated by washing with two consecutive 1-minute injections of 10mM glycine pH 2.1 (provided by the kit) at a flow rate of 10 μl/min. Bulk refractive index differences were corrected by subtracting the response obtained from an anti-human Fab reference surface; blank injections are also subtracted (=double referencing).
(§3) For calculation of KD and kinetic parameters Biacore provided fitting models were used to obtain optimal curve fitting results. The 1:1 Langmuir fit was used for P1AA5872 and the Two State Kinetic fitting for CD25 from Sino Biologicals and R&D Systems.

[2] = biological target: T2, human CD25 expressed on cells (human, UniProt P01589 22-272); assay: flow cytometry on CD3/CD28 bead activated human Pan T cells, gated on CD8+ T cells
T2 sequence: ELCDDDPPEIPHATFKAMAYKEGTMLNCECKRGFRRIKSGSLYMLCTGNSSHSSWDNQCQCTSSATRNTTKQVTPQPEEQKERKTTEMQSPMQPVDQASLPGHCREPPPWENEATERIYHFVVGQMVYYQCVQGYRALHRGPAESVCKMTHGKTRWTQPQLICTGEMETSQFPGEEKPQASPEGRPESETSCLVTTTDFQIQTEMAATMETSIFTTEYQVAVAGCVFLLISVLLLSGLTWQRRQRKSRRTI
Experimental: (§4) Binding to CD25 expressing activated human and Cynomolgus monkey PMBC was examined by staining test articles (anti-CD25 primary antibodies) with 20 μg/ml antibodies followed by semi-log dilution series (7-point) for 30 minutes on ice. This was followed by staining with a secondary antibody (rabbit anti-human Fcg F(ab′)2- (Jackson ImmunoResearch)) concentration of 5 μg/ml for 30 minutes on ice. All samples were stained in triplicates. To minimize cross-linking induced cell death mediated by binding of the secondary antibody, cell lines were examined in staining cohorts of 4 test articles at a time. Live lymphocytes were gated using FSC vs SSC parameters by flow cytometry during sample acquisition. Mean fluorescence intensity (MFI) of gated CD4⁺ and CD8⁺ T cell subsets were plotted on an XY chart, graphing MFI against the log of the concentration, and the data fit to a non-linear regression curve from which the EC50 was calculated.

[3] = biological target: T3, recombinant human CD25 extracellular protein sequence (rhCD25) (human, UniProt P01589 22-240); assay: ForteBio BLI; format not given; upper end of the stated Kd range
T3 construct: also called human CD25 antigen; target antigen
T3 sequence: T1 sequence

[4] = biological target: T3, recombinant human CD25 extracellular …; assay: ForteBio BLI; format not given; lower end of the stated Kd range
[5] = biological target: T4, human CD25 antigen, Sino Biologicals cat no. 10165-H08H (human, UniProt P01589 22-213); assay: SPR Biacore T200, antibody captured by anti-human Fab, CD25 in solution, Two State Reaction fit; column head 'Binding strength'; Sino Biologicals CD25, ~20% dimer; Two State Reaction fit
T4 construct: Bought protein; also called Sino biological (~20% dimer)
T4 sequence: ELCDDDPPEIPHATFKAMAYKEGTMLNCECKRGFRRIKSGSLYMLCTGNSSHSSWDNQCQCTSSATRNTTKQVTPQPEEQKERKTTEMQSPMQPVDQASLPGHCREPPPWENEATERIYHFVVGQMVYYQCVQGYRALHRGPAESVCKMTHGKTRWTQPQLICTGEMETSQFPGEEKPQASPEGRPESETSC
Experimental: as §1, §2, §3

[6] = biological target: T5, recombinant human CD25 his tagged (human, UniProt P01589 22-240, limits assumed); assay: ForteBio BLI, avidity format: rhCD25-His on Ni-NTA sensor, IgG in solution, 1:1 fit
T5 construct: Loaded on Ni-NTA sensors at 20.83 nM; also called rhCD25-his; not shown: His tag
T5 sequence: T1 sequence

[7] = biological target: T2, human CD25 expressed on cells; assay: flow cytometry on CD3/CD28 bead activated human Pan T cells, gated on CD4+ T cells
Experimental: as §4

[8] = biological target: T6, human CD25 antigen, R&D Systems cat no. 223-2A/CF (human, UniProt P01589 22-213, limits assumed); assay: SPR Biacore T200, antibody captured by anti-human Fab, CD25 in solution, Two State Reaction fit; column head 'Binding strength'
T6 construct: Bought protein; also called R&D Systems (~10% dimer)
T6 sequence: T4 sequence
Experimental: as §1, §2, §3

[9] = biological target: T2, human CD25 expressed on cells; assay: flow cytometry on human in vitro differentiated Treg cells, Alexa Fluor 647 anti-human IgG secondary
Experimental: Binding to CD25 expressing in vitro differentiated Tregs was examined by staining test articles (anti-CD25 primary antibodies) with 30 μg/ml antibodies followed by semi-log dilution series (7-point) for 30 minutes on ice. […] All samples were stained in duplicates. Live cells were gated using FSC vs SSC parameters by flow cytometry during sample acquisition. Mean fluorescence intensity (MFI) of stained cells were plotted on an XY chart, graphing MFI against the log of the concentration, and the data fit to a non-linear regression curve from which the EC50 is calculated.

- Kd [1]: 517 nM
- EC50 (read off the curve) [2]: ~1 µg/mL
- Kd [3]: ≤ 10 nM
- Kd [4]: ≥ 0.1 nM
- Kd [5]: 40 nM
- Kd [6]: 2.12 nM
- EC50 (read off the curve) [7]: ~0.9 µg/mL
- Kd [8]: 48 nM
- EC50 (read off the curve) [9]: ~2 µg/mL
B1: aCD25-a-674 (antibody, V domains shown)
VH: QVQLVQSGAEVKKPGASVKVSCKASGYTFTSYYMHWVRQAPGQGLEWMGIINPSGGSTSYAQKFQGRVTMTRDTSTSTVYMELSSLRSEDTAVYYCARGGAEYIPAEYFQHWGQGTLVTVSS
VL: EIVMTQSPATLSLSPGERATLSCRASQSVSSYLAWYQQKPGQAPRLLIYDASNRATGIPARFSGSGSGTDFTLTISSLEPEDFAVYYCQQRPFLPTFGGGTKVEIK
notes: not shown: human IgG1 heavy chain constant region, P01857; human kappa light chain constant region, P01834
